According to patent publication US20240270821A1, “GIP/GLP1/GCG TRI-RECEPTOR AGONISTS AND USES THEREOF” (priority 2023, published 2024):
Numbering of substitutions follows the chain as printed.

T1: human GIP receptor (human) (UniProt P48546)
T1 sequence (looked up): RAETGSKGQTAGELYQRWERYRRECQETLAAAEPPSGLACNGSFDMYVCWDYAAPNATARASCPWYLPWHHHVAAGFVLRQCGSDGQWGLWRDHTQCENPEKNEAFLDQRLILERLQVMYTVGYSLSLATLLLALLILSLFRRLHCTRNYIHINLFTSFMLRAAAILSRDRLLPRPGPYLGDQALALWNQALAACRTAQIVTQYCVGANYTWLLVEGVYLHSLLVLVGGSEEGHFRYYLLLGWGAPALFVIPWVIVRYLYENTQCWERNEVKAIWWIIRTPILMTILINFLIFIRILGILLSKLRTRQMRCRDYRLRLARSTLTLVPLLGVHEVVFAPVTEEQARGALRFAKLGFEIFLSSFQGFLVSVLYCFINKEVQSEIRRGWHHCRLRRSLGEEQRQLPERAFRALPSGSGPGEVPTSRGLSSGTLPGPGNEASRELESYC

B1: Example 751 (peptide)
chain: YXQGTXTSDXXIXLDXKAQXEFIEXLVEGGPSSGAPPPSGSE
modifications: synthetic construct; SITE 2: note = 2-Aminoisobutyric Acid; SITE 6: note = alpha-methyl-2-fluoro-L-phenylalanine; SITE 10: note = 3-(4-Pyridyl)-L-alanine; SITE 11: note = alpha-methyl-L-serine; SITE 13: note = alpha-methyl-leucine; SITE 16: note = L-ornithine; SITE 17: note = Lysine is chemically mo
B2: Example 752 (peptide)
chain: B1 chain with A35E
modifications: synthetic construct; SITE 2: note = 2-Aminoisobutyric Acid; SITE 6: note = alpha-methyl-2-fluoro-L-phenylalanine; SITE 10: note = 3-(4-Pyridyl)-L-alanine; SITE 11: note = alpha-methyl-L-serine; SITE 13: note = alpha-methyl-leucine; SITE 16: note = L-ornithine; SITE 17: note = Lysine is chemically mo
B3: Example 722 (peptide)
chain: YXQGTXTSDXXIXLDXKAAXEFIEXLIEGGPSSGAPPPSGX
modifications: C-terminal γGlu; C-terminal amide; synthetic construct; SITE 2: note = 2-Aminoisobutyric Acid; SITE 6: note = alpha-methyl-2-fluoro-L-phenylalanine; SITE 10: note = 3-(4-Pyridyl)-L-alanine; SITE 11: note = alpha-methyl-L-serine; SITE 13: note = alpha-methyl-leucine; SITE 16: note = L-ornithine; SITE 17: note = Lysine is chemically mo
B4: Example 750 (peptide)
chain: B3 chain with A19Q, I27V, A35E, X41E
modifications: synthetic construct; SITE 2: note = 2-Aminoisobutyric Acid; SITE 6: note = alpha-methyl-2-fluoro-L-phenylalanine; SITE 10: note = 3-(4-Pyridyl)-L-alanine; SITE 11: note = alpha-methyl-L-serine; SITE 13: note = alpha-methyl-leucine; SITE 16: note = L-ornithine; SITE 17: note = Lysine is chemically mo
B5: Example 749 (peptide)
chain: B3 chain with A19Q, I27V, X41E
modifications: synthetic construct; SITE 2: note = 2-Aminoisobutyric Acid; SITE 6: note = alpha-methyl-2-fluoro-L-phenylalanine; SITE 10: note = 3-(4-Pyridyl)-L-alanine; SITE 11: note = alpha-methyl-L-serine; SITE 13: note = alpha-methyl-leucine; SITE 16: note = L-ornithine; SITE 17: note = Lysine is chemically mo
B6: Example 724 (peptide)
chain: YXQGTXTSDXXIXLDXKAAXEFIEXLIEGGPSSGAPPPSGTGX
modifications: synthetic construct; SITE 2: note = 2-Aminoisobutyric Acid; SITE 6: note = alpha-methyl-2-fluoro-L-phenylalanine; SITE 10: note = 3-(4-Pyridyl)-L-alanine; SITE 11: note = alpha-methyl-L-serine; SITE 13: note = alpha-methyl-leucine; SITE 16: note = L-ornithine; SITE 17: note = Lysine is chemically mo
B7: Example 746 (peptide)
chain: B6 chain with A35E, T41G, X43E
modifications: synthetic construct; SITE 2: note = 2-Aminoisobutyric Acid; SITE 6: note = alpha-methyl-2-fluoro-L-phenylalanine; SITE 10: note = 3-(4-Pyridyl)-L-alanine; SITE 11: note = alpha-methyl-L-serine; SITE 13: note = alpha-methyl-leucine; SITE 16: note = L-ornithine; SITE 17: note = Lysine is chemically mo
B8: Example 748 (peptide)
chain: B6 chain with A35E, T41G, X43E
modifications: synthetic construct; SITE 2: note = 2-Aminoisobutyric Acid; SITE 6: note = alpha-methyl-2-fluoro-L-phenylalanine; SITE 10: note = 3-(4-Pyridyl)-L-alanine; SITE 11: note = alpha-methyl-L-serine; SITE 13: note = alpha-methyl-leucine; SITE 16: note = L-ornithine; SITE 17: note = Lysine is chemically mo
B9: Example 745 (peptide)
chain: B6 chain with T41G, X43E
modifications: synthetic construct; SITE 2: note = 2-Aminoisobutyric Acid; SITE 6: note = alpha-methyl-2-fluoro-L-phenylalanine; SITE 10: note = 3-(4-Pyridyl)-L-alanine; SITE 11: note = alpha-methyl-L-serine; SITE 13: note = alpha-methyl-leucine; SITE 16: note = L-ornithine; SITE 17: note = Lysine is chemically mo
B10: Example 726 (peptide)
chain: B6 chain with G42E
modifications: synthetic construct; SITE 2: note = 2-Aminoisobutyric Acid; SITE 6: note = alpha-methyl-2-fluoro-L-phenylalanine; SITE 10: note = 3-(4-Pyridyl)-L-alanine; SITE 11: note = alpha-methyl-L-serine; SITE 13: note = alpha-methyl-leucine; SITE 16: note = L-ornithine; SITE 17: note = Lysine is chemically mo
B11: Example 747 (peptide)
chain: B6 chain with T41G, X43E
modifications: synthetic construct; SITE 2: note = 2-Aminoisobutyric Acid; SITE 6: note = alpha-methyl-2-fluoro-L-phenylalanine; SITE 10: note = 3-(4-Pyridyl)-L-alanine; SITE 11: note = alpha-methyl-L-serine; SITE 13: note = alpha-methyl-leucine; SITE 16: note = L-ornithine; SITE 17: note = Lysine is chemically mo
B12: Example 725 (peptide)
chain: B6 chain with G42E, X43E
modifications: synthetic construct; SITE 2: note = 2-Aminoisobutyric Acid; SITE 6: note = alpha-methyl-2-fluoro-L-phenylalanine; SITE 10: note = 3-(4-Pyridyl)-L-alanine; SITE 11: note = alpha-methyl-L-serine; SITE 13: note = alpha-methyl-leucine; SITE 16: note = L-ornithine; SITE 17: note = Lysine is chemically mo

These binders were tested against hGLP-1R (Homo sapiens, UniProt P43220) (assay: cell-based or functional assay).
Chain of hGLP-1R (P43220 24-463): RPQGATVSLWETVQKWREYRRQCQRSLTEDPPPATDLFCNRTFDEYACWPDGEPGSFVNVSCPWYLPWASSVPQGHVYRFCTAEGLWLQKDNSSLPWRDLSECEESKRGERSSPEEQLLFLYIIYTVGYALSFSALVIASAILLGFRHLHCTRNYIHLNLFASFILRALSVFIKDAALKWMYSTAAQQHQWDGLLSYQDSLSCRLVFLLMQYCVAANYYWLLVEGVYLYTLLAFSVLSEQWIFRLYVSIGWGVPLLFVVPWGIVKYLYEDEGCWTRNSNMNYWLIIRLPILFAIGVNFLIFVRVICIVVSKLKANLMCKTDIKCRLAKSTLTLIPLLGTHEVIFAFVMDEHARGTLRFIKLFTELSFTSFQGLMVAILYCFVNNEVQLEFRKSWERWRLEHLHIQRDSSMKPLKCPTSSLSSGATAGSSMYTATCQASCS
B1 showed a Relative cAMP EC50 of 0.302 nM and a cAMP Rel EC50, nM (1% HSA) of 32.3 nM. In the case of B2, the Relative cAMP EC50 is reported as 0.274 nM and the cAMP Rel EC50, nM (1% HSA) is reported as 44 nM. B3 gave a Relative cAMP EC50 of 0.252 nM and a cAMP Rel EC50 (1% HSA) of 27.2 nM. Work on B4 yielded a Relative cAMP EC50 of 0.302 nM and a cAMP Rel EC50, nM (1% HSA) of 39.1 nM. For B5, the Relative cAMP EC50 was 0.293 nM and the cAMP Rel EC50, nM (1% HSA) was 33.9 nM. Binder B6 has a Relative cAMP EC50 of 0.256 nM and a cAMP Rel EC50 (1% HSA) of 26.4 nM. In the case of B7, the Relative cAMP EC50 is reported as 0.261 nM and the cAMP Rel EC50 (1% HSA) is reported as 38.6 nM. B8 showed a Relative cAMP EC50 of 0.258 nM and a cAMP Rel EC50, nM (1% HSA) of 22.9 nM. In the case of B9, the Relative cAMP EC50 is reported as 0.212 nM and the cAMP Rel EC50 (1% HSA) is reported as 29 nM. B10 was tested, and the Relative cAMP EC50 was 0.247 nM and the cAMP Rel EC50 (1% HSA) was 33.3 nM. Work on B11 yielded a Relative cAMP EC50 of 0.229 nM and a cAMP Rel EC50, nM (1% HSA) of 20.3 nM. Binder B12 has a Relative cAMP EC50 of 0.258 nM and a cAMP Rel EC50 (1% HSA) of 29.1 nM.

The binders below were run against T1, human GIP receptor (human) (assay: cell-based or functional assay).
Binder B1 has a Relative cAMP EC50 of 0.00759 nM and a cAMP Rel EC50, nM (1% HSA) of 1.27 nM. B2 was tested, and the Relative cAMP EC50 was 0.00689 nM and the cAMP Rel EC50, nM (1% HSA) was 1.74 nM. B3 showed a Relative cAMP EC50 of 0.01 nM and a cAMP Rel EC50 (1% HSA) of 0.953 nM. Work on B4 yielded a Relative cAMP EC50 of 0.00784 nM and a cAMP Rel EC50, nM (1% HSA) of 1.34 nM. B5 showed a Relative cAMP EC50 of 0.00718 nM and a cAMP Rel EC50, nM (1% HSA) of 1.47 nM. For B6, the Relative cAMP EC50 was 0.0102 nM and the cAMP Rel EC50 (1% HSA) was 1.06 nM. Work on B7 yielded a Relative cAMP EC50 of 0.0119 nM and a cAMP Rel EC50 (1% HSA) of 1.44 nM. B8 gave a Relative cAMP EC50 of 0.0105 nM and a cAMP Rel EC50, nM (1% HSA) of 0.865 nM. Binder B9 has a Relative cAMP EC50 of 0.012 nM and a cAMP Rel EC50 (1% HSA) of 1.36 nM. In the case of B10, the Relative cAMP EC50 is reported as 0.013 nM and the cAMP Rel EC50 (1% HSA) is reported as 1.22 nM. For B11, the Relative cAMP EC50 was 0.00955 nM and the cAMP Rel EC50, nM (1% HSA) was 0.651 nM. B12 gave a Relative cAMP EC50 of 0.0126 nM and a cAMP Rel EC50 (1% HSA) of 1.39 nM.

Each binder was assayed against human glucagon receptor (human) (UniProt P47871) (assay: cell-based or functional assay).
Chain of human glucagon receptor (human) (P47871 26-477): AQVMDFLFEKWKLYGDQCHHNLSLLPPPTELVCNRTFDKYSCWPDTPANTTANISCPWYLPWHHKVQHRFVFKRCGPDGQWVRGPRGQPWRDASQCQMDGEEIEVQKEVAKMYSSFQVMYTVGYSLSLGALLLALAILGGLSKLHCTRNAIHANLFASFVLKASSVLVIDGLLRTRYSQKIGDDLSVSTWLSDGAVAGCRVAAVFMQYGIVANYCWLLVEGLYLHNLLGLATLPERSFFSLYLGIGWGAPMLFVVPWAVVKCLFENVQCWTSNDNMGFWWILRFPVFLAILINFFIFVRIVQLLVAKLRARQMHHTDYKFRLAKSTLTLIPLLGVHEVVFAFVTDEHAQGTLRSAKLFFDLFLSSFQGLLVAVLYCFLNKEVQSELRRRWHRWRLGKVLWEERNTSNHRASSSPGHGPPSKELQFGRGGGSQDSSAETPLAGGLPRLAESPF
Work on B1 yielded a Relative cAMP EC50 of 1.9 nM and a cAMP Rel EC50, nM (1% HSA) of 267 nM. B2 was tested, and the Relative cAMP EC50 was 1.9 nM and the cAMP Rel EC50, nM (1% HSA) was 228 nM. Binder B3 has a Relative cAMP EC50 of 1.71 nM and a cAMP Rel EC50 (1% HSA) of 170 nM. Work on B4 yielded a Relative cAMP EC50 of 2 nM and a cAMP Rel EC50, nM (1% HSA) of 205 nM. For B5, the Relative cAMP EC50 was 2.21 nM and the cAMP Rel EC50, nM (1% HSA) was 28 nM. In the case of B6, the Relative cAMP EC50 is reported as 1.74 nM and the cAMP Rel EC50 (1% HSA) is reported as 209 nM. Work on B7 yielded a Relative cAMP EC50 of 1.62 nM and a cAMP Rel EC50 (1% HSA) of 255 nM. B8 was tested, and the Relative cAMP EC50 was 1.42 nM and the cAMP Rel EC50, nM (1% HSA) was 156 nM. B9 gave a Relative cAMP EC50 of 1.86 nM and a cAMP Rel EC50 (1% HSA) of 266 nM. B10 was tested, and the Relative cAMP EC50 was 1.71 nM and the cAMP Rel EC50 (1% HSA) was 226 nM. Binder B11 has a Relative cAMP EC50 of 1.71 nM and a cAMP Rel EC50, nM (1% HSA) of 169 nM. For B12, the Relative cAMP EC50 was 1.49 nM and the cAMP Rel EC50 (1% HSA) was 244 nM.
